Reference: article PMC4662715
pKd: −log10 of the molar value.

Target: CCR1-rHDL (human C-C chemokine receptor 1 with C-terminal 1D4 tag, in reconstituted high density lipoprotein) (human) (UniProt P32246)
Experiment: SPR; CCR1-rHDL captured via immobilised 1D4 antibody on a CM5 chip (~3000 RU); MIP-1α variant flowed at 0.13-5.0 μM; 25 °C; 20 mM HEPES, pH 7.2, 100 mM NaCl; empty-rHDL on the control flow cell; steady-state fit

Sequence of UniProt P32246 (P32246 whole entry): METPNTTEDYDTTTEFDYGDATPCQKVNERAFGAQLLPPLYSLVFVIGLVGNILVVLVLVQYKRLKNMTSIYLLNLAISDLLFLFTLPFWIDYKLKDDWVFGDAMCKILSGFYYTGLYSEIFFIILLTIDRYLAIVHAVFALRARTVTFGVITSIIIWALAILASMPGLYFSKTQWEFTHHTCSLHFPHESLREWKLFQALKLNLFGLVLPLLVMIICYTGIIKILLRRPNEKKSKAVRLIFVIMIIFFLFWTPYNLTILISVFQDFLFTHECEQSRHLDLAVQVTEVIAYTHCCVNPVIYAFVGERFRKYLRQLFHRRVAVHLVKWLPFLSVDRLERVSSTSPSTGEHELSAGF

- pKd: 5.70
Substance: MIP-1α variant (P8A/F13Y/E67Q) (ligand)
